Experimental data reported in patent US20140096284A1, “METHOD FOR THE DELIVERY OF MOLECULES LYOPHILIZED ONTO MICROPARTICLES TO PLANT TISSUES” (priority 2012, published 2014).

Experiments:
onion epidermis tissue [1] = assay: Biolistic delivery of molecules lyophilized onto 0.6 μm gold microcarriers to onion epidermis tissue; assay type: cell-based; conditions: 275 μg per shot lyophilized onto 0.6 μm gold, one day after bombardment
Procedure: 2 μL of 0.6 μm gold particle stock was mixed with 1 μg of GFP plasmid pLMNC95 or 2 μL of a 400 ng/μL, TRITC-BSA solution. The mixture was poured on a macrocarrier, frozen in liquid nitrogen and freeze-dry for 1 hour prior to onion epidermis tissue bombardment.
Onion epidermis tissue was obtained from the scale leaves of white onion bulbs. Rectangular (3×2.5 cm) pieces were peeled right before the bombardment and placed in solid agar media (0.5 mM of 2-(N-morpholino)ethanesulfonic acid (MES), 15 g L^−1 Bacto agar (BD), pH 5.7) with the peeled side upwards. For quantitative measurements, epidermis pieces of the same scale leaf were distributed among treatments. Tobacco leaves (Nicotiana tabacum var. Petite Havana) were obtained from 3-6 week old in vitro grown plants on MS media (MS medium (Murashige and Skoog, 1962), 2% sucrose, 2.5 g L^−1 gelrite, pH 5.7). Leaves were cut right before bombardment and put with the adaxial surface up on agar media. Hill maize immature embryos were obtained from immature ears provided by the Center for Plant Transformation—Iowa State University. […]
Bright field and fluorescence images were taken using a Zeiss Axio star plus microscope. […] For the green channel fluorescence images a GFP BP filter (Chroma Technology Corp.) was used (λex=470 nm, beam splitter=495 nm and λem=525 nm). […]

onion epidermis tissue [2] = assay: Biolistic delivery of air-dried or freeze-dried protein or DNA, with or without 0.6 μm gold, to onion epidermis; assay type: cell-based
Procedure: Previously, protein and 0.6 μm gold projectiles were mixed and poured on top of a macrocarrier of the gene gun, frozen in liquid nitrogen, and lyophilized or freeze-dried. The same experiment was repeated by pouring the protein/0.6 μm gold mixture over a macrocarrier and leaving it to dry on top of a bench for 1 hour or overnight, termed “air-dried” (FIG. 10A). The experiment was done with two different proteins, β-glucuronidase and DS-RED2. Onion epidermis tissues were bombarded using these macrocarriers. An experiment was conducted using β-glucuronidase and DS-RED2, air-dried directly onto the macrocarriers without 0.6 μm gold projectiles (FIG. 10B). […] An experiment was conducted to compare DNA coating based on CaCl2/spermidine precipitation, freeze-drying or air-drying, and 0.6 μm gold particles. […] A DNA containing solution was freeze-dried or air-dried (without 0.6 μm gold projectiles) directly onto macrocarriers. Onion epidermis tissues were bombarded and 1 to 20 fluorescent cells could be observed (FIG. 15 and FIG. 16). Even though the number of cells that were transfected is much lower than when using 0.6 μm gold, protein can be delivered without the use of projectiles.

[3] = tested on: onion epidermis cell tissues; assay: Bombardment of onion epidermis with liquid protein solutions; assay type: cell-based; conditions: liquid protein solution on macrocarrier; tissue damage was caused
Source text: As a control, β-glucuronidase and DS-RED2 protein solutions were poured over the macrocarrier and onion epidermis cell tissues were bombarded. […] However, the use of lesser volumes, less harsh gene-gun conditions or other liquid propelling methodologies may allow for protein delivery with less tissue damage.

[4] = tested on: mouse ear pinna tissue cells; assay: Delivery of active β-glucuronidase to mouse ear pinna tissue cells; assay type: cell-based, CD-1 mice; conditions: 200 μg per shot air-dried with 90 μg 0.6 μm gold; 650 and 1100 psi; sixteen hours
Procedure: A mixture of 90 μg of 0.6 μm gold and 200 μg of β-glucuronidase per shot were air-dried onto the macrocarrier set for 2 hours. Ear pinnas of 8 week old CD-1 mice were dissected right after animals were euthanized. The tissues were disposed with the inner part of the ear upwards on an agar medium plate (FIG. 17A) and were immediately bombarded using the PDS-1000/He gene-gun at 650 psi or 1100 psi, 6 cm target distance and 28 mmHg vacuum. Samples were then soaked in X-gluc solution and incubated at 37° C. overnight. Sixteen hours later samples were examined under the microscope. […] Multiple gold particles (detected as dark dots) could be detected in different depths of the same cell (FIG. 17C). The localization of these blue cells in the bombarded tissue is the result of active β-glucuronidase protein delivery.

onion epidermis tissues = assay: Delivery of β-glucuronidase or plasmid DNA air dried onto tungsten particles to onion epidermis; assay type: cell-based; conditions: 200 μg per shot air-dried onto M5 or M17 tungsten; 1100 psi/6 cm
Procedure: M5 (0.4 μm in size) and M17 (1.1 μm in size) tungsten particles from Bio-Rad were used. 100 μg of each type of particle and 200 μg of β-glucuronidase enzyme or 1 μg of GFP expressing plasmid pLMNC95 were used per shot. The suspensions were air dried for 2 hours onto the macrocarrier-set. Onion epidermis tissues were bombarded at 1100 psi/6 cm. Samples bombarded with β-glucuronidase were incubated overnight at 37° C. in X-gluc solution as previously described.

onion epidermis tissue [5] = assay: Fluorescein diacetate staining, count of dead cells after bombardment; assay type: cell-based; conditions: 200 μg trypsin or 40 μg RNAse per shot lyophilized onto 0.6 μm gold
Procedure: Onion epidermis tissues were submerged in 10 mL of MS liquid media to which 100 μL of a 5 mg mL^−1 of fluorescein diacetate (Alfa Aesar) solution in acetone were added. The samples were incubated for 2-5 minutes and directly observed under the green channel filter of the fluorescence microscope. For quantitative measurements, 12 images (10.5×8 mm) were taken with the 5× microscope objective scattered every 0.5 cm (4 columns×3 rows). The total amount of dead cells found on each image was counted.
The high concentration of protein used per shot (250 μg per shot) and the lyophilization process could cause cell death by: (1) physical damage of the potential clumps produced after lyophilizing protein and microparticles and (2) excess of intracellular protein delivery reaching toxic levels. To assess cellular death, onion epidermis tissues were stained with fluorescein diacetate, which stains in fluorescent green the living cells, while the dead ones remain dark (FIG. 7A). […]
As another example of active enzyme delivery, trypsin and RNAse A were chosen. […] The number of dead cells was measured using fluorescein diacetate staining in samples not bombarded, bombarded only with 0.6 μm gold or with 200 μg of trypsin or 40 μg of RNAse per shot. […]

B1: β-glucuronidase: enzyme (Sigma) detected by X-gluc histochemical staining (protein, UniProt P05804 1-603, looked up)
Beta-glucuronidase: MLRPVETPTREIKKLDGLWAFSLDRENCGIDQRWWESALQESRAIAVPGSFNDQFADADIRNYAGNVWYQREVFIPKGWAGQRIVLRFDAVTHYGKVWVNNQEVMEHQGGYTPFEADVTPYVIAGKSVRITVCVNNELNWQTIPPGMVITDENGKKKQSYFHDFFNYAGIHRSVMLYTTPNTWVDDITVVTHVAQDCNHASVDWQVVANGDVSVELRDADQQVVATGQGTSGTLQVVNPHLWQPGEGYLYELCVTAKSQTECDIYPLRVGIRSVAVKGEQFLINHKPFYFTGFGRHEDADLRGKGFDNVLMVHDHALMDWIGANSYRTSHYPYAEEMLDWADEHGIVVIDETAAVGFNLSLGIGFEAGNKPKELYSEEAVNGETQQAHLQAIKELIARDKNHPSVVMWSIANEPDTRPQGAREYFAPLAEATRKLDPTRPITCVNVMFCDAHTDTISDLFDVLCLNRYYGWYVQSGDLETAEKVLEKELLAWQEKLHQPIIITEYGVDTLAGLHSMYTDMWSEEYQCAWLDMYHRVFDRVSAVVGEQVWNFADFATSQGILRVGGNKKGIFTRDRKPKSAAFLLQKRWTGMNFGEKPQQGGKQ
B1 was tested, and the “active enzyme delivery (blue cells after X-gluc staining)” value (onion epidermis tissue [1]) was “several blue cells could be observed”, the “protein delivery after bombardment” value (onion epidermis tissue [2]; air-dried directly onto macrocarriers without 0.6 μm gold) was “protein delivery also could be detected” and the “degradation when subjected to air drying” value (onion epidermis tissue [2]; air-dried on macrocarrier) was “not substantially degraded”. The “protein delivery after bombardment” value (onion epidermis tissue [2]; air-dried with 0.6 μm gold on macrocarrier for 1 hour or overnight) was “protein delivery was achieved”, the “protein delivery after bombardment” value [3] was “no protein delivery was observed” and the “active enzyme delivery (blue cells after X-gluc incubation)” value [4] was “several blue cells were localized in the tissues”. For the same molecule, the “active enzyme delivery (blue cells after X-gluc incubation)” value (onion epidermis tissues) was “several cells were showing blue coloration”.

B2: RNAse: enzyme (Sigma) expected to digest intracellular RNA content (protein, UniProt P61823 27-150, looked up)
Ribonuclease pancreatic: KETAAAKFERQHMDSSTSAASSSNYCNQMMKSRNLTKDRCKPVNTFVHESLADVQAVCSQKNVACKNGQTNCYQSYSTMSITDCRETGSSKYPNCAYKTTQANKHIIVACEGNPYVPVHFDASV
With B2 the “dead cells compared with controls without the enzymes (indirect measurement of enzyme activity)” value (onion epidermis tissue [5]) was “large amounts of dead cells”.

B3: trypsin: enzyme (Sigma) expected to digest intracellular protein (protein, UniProt P00760 24-246, looked up)
Serine protease 1: IVGGYTCGANTVPYQVSLNSGYHFCGGSLINSQWVVSAAHCYKSGIQVRLGEDNINVVEGNEQFISASKSIVHPSYNSNTLNNDIMLIKLKSAASLNSRVASISLPTSCASAGTQCLISGWGNTKSSGTSYPDVLKCLKAPILSDSSCKSAYPGQITSNMFCAGYLEGGKDSCQGDSGGPVVCSGKLQGIVSWGSGCAQKNKPGVYTKVCNYVSWIKQTIASN
B3 was tested, and the “dead cells compared with controls without the enzymes (indirect measurement of enzyme activity)” value (onion epidermis tissue [5]) was “large amounts of dead cells”.
